Measurements from article PMC3148273.

Substrate: CCCCCCCCCCCCC/C=C/[C@@H](O)[C@@H](N)CO
Assay: purified SK2 Michaelis-Menten kinetics with [γ-32P]ATP
Format: biochemical, Homo sapiens
Details: Mg2+

B1: sphingosine kinase 2 (SK2) (Homo sapiens) (protein)
chain: MNGHLEAEEQQDQRPDQELTGSWGHGPRSTLVRAKAMAPPPPPLAASTPLLHGEFGSYPARGPRFALTLTSQALHIQRLRPKPEARPRGGLVPLAEVSGCCTLRSRSPSDSAAYFCIYTYPRGRRGARRRATRTFRADGAATYEENRAEAQRWATALTCLLRGLPLPGDGEITPDLLPRPPRLLLLVNPFGGRGLAWQWCKNHVLPMISEAGLSFNLIQTERQNHARELVQGLSLSEWDGIVTVSGDGLLHEVLNGLLDRPDWEEAVKMPVGILPCGSGNALAGAVNQHGGFEPALGLDLLLNCSLLLCRGGGHPLDLLSVTLASGSRCFSFLSVAWGFVSDVDIQSERFRALGSARFTLGTVLGLATLHTYRGRLSYLPATVEPASPTPAHSLPRAKSELTLTPDPAPPMAHSPLHRSVSDLPLPLPQPALASPGSPEPLPILSLNGGGPELAGDWGGAGDAPLSPDPLLSSPPGSPKAALHSPVSEGAPVIPPSSGLPLPTPDARVGASTCGPPDHLLPPLGTPLPPDWVTLEGDFVLMLAISPSHLGADLVAAPHARFDDGLVHLCWVRSGISRAALLRLFLAMERGSHFSLGCPQLGYAAARAFRLEPLTPRGVLTVDGEQVEYGPLQAQMHPGIGTLLTGPPGCPGREP
- Km: 10.5 µM
